The results in this text go back to patent US20110086795A1.

For this assay, the target named is Myc-tagged Slo1QEERL. In words: cell-based or functional assay.

In turn, HA-tagged Slo1VEDEC yielded a reduction in mean surface expression of Slo1 (cell-surface biotinylation, densitometry) of 50%.
